From patent publication US20250313650A1 (BIOLEGEND, published 2025)

Assays:
recombinant human CHI3L1 [1] = target: T1, recombinant human CHI3L1 (human, UniProt P36222 22-383); experiment: flow cytometry blocking assay on THP-1 cells (FIG. 5A legend)
T1 construct: also called recombinant CHI3L1; CHI3L1 protein
Description: (§1) To assess for specificity for CHI3L1 and cross-reactivity with the closely related protein CHI3L2, certain anti-CHI3L1 antibody clones were assessed using CHI3L1 expressing human […] cell line THP-1. THP-1 cells were grown in RPMI media supplemented with 10% FBS in T75 culture flask. Cells were fixed in Fixation Buffer and permeabilized using Intracellular Perm Wash Buffer. 1 μg anti-CHI3L1 antibodies (conjugated to Alexa-647) were incubated with 5 μg recombinant CHI3L1 or recombinant CHI3L2 for 15 minutes and then added to cells. After 15 minutes incubation, cells were then washed twice with Intracellular Perm Wash Buffer and analyzed on a BD LSRII flow cytometer.

recombinant CHI3L2 = target: T2, recombinant CHI3L2 (UniProt Q15782 27-390, limits assumed); experiment: flow cytometry blocking assay on fixed/permeabilized THP-1 cells; antibody pre-incubated with recombinant protein
T2 sequence (looked up): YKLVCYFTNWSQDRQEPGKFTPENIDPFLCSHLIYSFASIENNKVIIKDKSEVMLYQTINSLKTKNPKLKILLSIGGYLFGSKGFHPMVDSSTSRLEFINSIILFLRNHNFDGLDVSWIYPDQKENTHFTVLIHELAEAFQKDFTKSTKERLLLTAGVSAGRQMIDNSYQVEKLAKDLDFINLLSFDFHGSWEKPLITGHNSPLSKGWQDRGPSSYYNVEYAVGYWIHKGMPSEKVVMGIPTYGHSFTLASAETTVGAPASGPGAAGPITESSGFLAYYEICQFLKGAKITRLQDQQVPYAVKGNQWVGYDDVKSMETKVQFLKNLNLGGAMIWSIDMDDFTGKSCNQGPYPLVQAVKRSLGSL
Description: as §1

[2] = target: T3, CHI3L1 expressed in human cell lines (THP-1, U-87 MG) (human, UniProt P36222 22-383); experiment: flow cytometry, fixed/permeabilized CHI3L1-expressing THP-1 cells, 1 µg Alexa-647 antibody
T3 construct: Endogenous CHI3L1 of human cell lines; It was detected inside fixed and permeabilized cells, not on the cell surface; In the ERK assay it is the CHI3L1 made by live U-87 MG cells; also called chitinase 3 like protein 1; YKL-40
Description: In a first experiment, certain anti-CHI31L1 antibodies were assessed using CHI31L1 expressing human […] cell line THP-1. THP-1 cells were grown in RPMI media supplemented with 10% FBS in T75 culture flask. Cells were fixed in Fixation Buffer and permeabilized using Intracellular Perm Wash Buffer. 1 μg anti-CHI31L1 antibodies (conjugated to Alexa-647) were added and allowed to incubate for 15 minutes. Cells were then washed twice with Intracellular Perm Wash Buffer and analyzed on a BD LSRII flow cytometer.

[3] = target: T4, CHI3L2 expressed in human T cell leukemia cell line Jurkat (human, UniProt Q15782 27-390); experiment: flow cytometry on fixed/permeabilized CHI3L2-expressing Jurkat cells, Alexa-647 antibody
T4 construct: whole, on cells; Endogenous protein, detected by intracellular staining
T4 sequence (looked up): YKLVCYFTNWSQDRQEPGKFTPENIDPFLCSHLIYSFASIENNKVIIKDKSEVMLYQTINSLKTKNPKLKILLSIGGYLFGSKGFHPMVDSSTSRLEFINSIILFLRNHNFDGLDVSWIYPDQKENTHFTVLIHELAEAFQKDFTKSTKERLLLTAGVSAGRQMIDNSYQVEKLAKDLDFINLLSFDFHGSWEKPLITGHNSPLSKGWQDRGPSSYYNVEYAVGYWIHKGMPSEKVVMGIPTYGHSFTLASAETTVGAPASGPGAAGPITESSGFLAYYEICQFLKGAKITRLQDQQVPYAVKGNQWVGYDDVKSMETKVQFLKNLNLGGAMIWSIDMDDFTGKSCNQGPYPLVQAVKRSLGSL
Description: To asses for cross-reactivity with the closely related protein CHI3L2, certain anti-CHI3L1 antibody clones were assessed using CHI3L2 expressing human T cell leukemia cell line Jurkat. Jurkat cells were grown in RPMI media supplemented with 10% FBS in T75 culture flask. Cells were fixed in Fixation Buffer and permeabilized using Intracellular Perm Wash Buffer. 1 μg anti-CHI3L1 antibodies (conjugated to Alexa-647) were added and allowed to incubate for 15 minutes. Cells were then washed twice with Intracellular Perm Wash Buffer and analyzed on a BD LSRII flow cytometer.

recombinant human CHI3L1 [4] = target: T1, recombinant human CHI3L1; experiment: flow cytometry blocking assay: 1 µg antibody pre-incubated with 5 µg recombinant CHI3L1, then added to THP-1 cells
Description: as §1

recombinant human CHI3L1 [5] = target: T1, recombinant human CHI3L1; experiment: bead-based sandwich immunoassay; biotinylated Clone B is the detection antibody, SAV-PE read-out
Description: In this Example, Clone F was paired with Clone B in a bead-based sandwich immunoassay. The assay used Clone F as a capture antibody to capture the antigen (CHI3L1 protein) and then Clone B was used as a detection antibody. The Clone F capture antibody was conjugated on the beads and the Clone B detection antibody was biotinylated. After incubation of the Clone F conjugated beads with CHI3L1 and then detection Clone B, on the beads surface, a sandwich including capture Clone F-CHI3L1-detection Clone B formed. The unbound CHI3L1 protein was then washed off and then streptavidin conjugated to phycoerythrin (SAV-PE) was added, which binds the biotin on the detection Clone B. The final complex including beads-Clone F capture antibody-CHI3L1-Clone B-SAV-PE was acquired onto a flow cytometer and the PE signal on the beads was measured.

T3 sequence (P36222 22-383 limits assumed): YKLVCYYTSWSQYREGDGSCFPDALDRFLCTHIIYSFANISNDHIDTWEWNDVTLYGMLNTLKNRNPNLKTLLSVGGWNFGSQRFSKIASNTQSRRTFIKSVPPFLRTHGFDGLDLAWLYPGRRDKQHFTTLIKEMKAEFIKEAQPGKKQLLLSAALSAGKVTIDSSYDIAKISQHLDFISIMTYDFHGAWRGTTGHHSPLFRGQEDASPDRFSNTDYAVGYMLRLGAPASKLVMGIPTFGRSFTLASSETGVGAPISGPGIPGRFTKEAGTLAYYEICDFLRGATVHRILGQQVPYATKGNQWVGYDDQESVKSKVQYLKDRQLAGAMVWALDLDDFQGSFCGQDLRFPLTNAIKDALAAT
T1 sequence (P36222 22-383 limits assumed): as above

B1: Clone A (antibody, V domains shown)
VH: DVQLQESGPDLVKPSQSLSLTCTVTGYSITSGYSWHWIRQFPGNKLEWMGYIHYSGRTNYNPSLKSRISFTRDTSKNQFFLRLNSVTPEDTATYYCARNYGYDEFAYWGQGTLVTVSA
VL: QIVLTQSPAIMSASPGEKVTMTCSASSSVSYMHWYQQKSGTSPKRWIYDTSKLASGVPARFSGSGSGTSYSLTISSMEAEDAATYYCQQWSSNPPTFGSGTKLEIK
notes: Hybridoma monoclonal antibody; Conjugated to Alexa-647 for flow cytometry
binding result (recombinant human CHI3L1 [1]): binds | binding result (recombinant CHI3L2): no binding | binding result [2]: binds | binding result [3]: no binding (tested: 1 µg)

B2: Clone E (antibody, V domains shown)
VH: DVQLQESGPDLVKPSQSLSLTCTVTGYSITSGYSWHWIRQFPGNKLEWMGYIHYSGTTNYNPSLKSRISITRDTSKNQFFLQLNSVTTEDTATYSCARNYGYDEFAYWGQGTLVTVSA
VL: QIVLTQSPAIMSASPGEKVTMTCSASSSVSYMHWYQQKSGTSPKRWIYDTSKLASGVPARFSGSGSGTSYSLTISSMEAEDAATYYCQQWSSNPPTFGSGTKLEIK
notes: as for B1
binding result [2]: binds

B3: anti-human CHI3L1 (Clone F) (antibody, V domains shown)
VH: QVQLQQSGPELVRPGVSVKISCKGSGYTFTDYAMHWVKQSHAKSLEWIGVISTYSGHTNYNQKFKGKATMTVDKSSSTAYMELARLTSEDSAIYYCARGVYYKPEFDYWGQGTTLTVSS
VL: DIQMTQSSSSFSVSLGDRVTITCKASEDIYNRLAWYQQKPGNAPRLLIFGATSLETGVPSRFSGSGSGKDYTLSITSLQTEDVATYYCQQYSSTPPTFGGGTKLEIK
notes: Hybridoma monoclonal antibody; a mouse IgG1 kappa isotype control was used alongside it
binding result (recombinant CHI3L2): no binding | binding result [3]: no binding (tested: 1 µg)

B4: anti-human CHI3L1 (Clone H) (antibody, V domains shown)
VH: QVQLQQSGPELVRPGVSVKISCKGSGYTFTHYAMHWVKQSHAKSLEWIGVISTYSGNTNYNQKFKGKATMTVDKSSSTAYMELARLTSEDSAIYYCARGVYYKPEFDYWGQGTTLTVSS
VL: DIQMTQSSSSFSVSLGDRVTITCKASEDIDNRLAWYQQKPGNAPRLLISGATSLETGVPSRFSGSGSGKDYTLSITSLQTEDVATYYCQQYWSTPPTFGGGTKLEIK
notes: as for B1
binding result (recombinant CHI3L2): no binding | binding result (recombinant human CHI3L1 [4]): binds | binding result [2]: binds | binding result [3]: no binding (tested: 1 µg)

B5: Clone B (antibody, V domains shown)
VH: EVKLLESGGGLVQPGGSLKLSCAASGCDFSRYWMSWVRQAPGKGLEWIGEINPDSSTINYTPSLKDKFIISRDNAKNTLYLQMSKVRSEDTALYYCARPEDHFAMDYWGQGTSVTVSS
VL: DIQMTQSPASQSASLGESVTITCLASQTIGTWLAWYQQKPGKSPQLLIYAATSLADGVPSRFSGSGSGTKFSFKISSLQAEDFVSYYCQQLYSTPWTFGGGTKLEIK
notes: Hybridoma monoclonal antibody
binding result (recombinant human CHI3L1 [5]): binds
